We go through 28 substances from article PMC6882875.

Holding throughout (test): EMSA
Holding throughout (conditions): EMSA: binding buffer stock 80 mM Tris-HCl pH 8.0, 20 mM MgCl2, 2 mM DTT, 4 mM EDTA, 400 mM KCl, 40% glycerol (final dilution not stated); poly(dI-dC) …
In general terms: A gel shift assay detects complexes by their altered migration in electrophoresis.

Data set [1] has as its system MalR1 (Bifidobacterium breve UCC2003).
Data set [2] deals with AraQ (Bifidobacterium breve UCC2003).
For data set [3], the system named is T1, AraQ (Bifidobacterium breve UCC2003), ORF:c628000b.
T1 sequence: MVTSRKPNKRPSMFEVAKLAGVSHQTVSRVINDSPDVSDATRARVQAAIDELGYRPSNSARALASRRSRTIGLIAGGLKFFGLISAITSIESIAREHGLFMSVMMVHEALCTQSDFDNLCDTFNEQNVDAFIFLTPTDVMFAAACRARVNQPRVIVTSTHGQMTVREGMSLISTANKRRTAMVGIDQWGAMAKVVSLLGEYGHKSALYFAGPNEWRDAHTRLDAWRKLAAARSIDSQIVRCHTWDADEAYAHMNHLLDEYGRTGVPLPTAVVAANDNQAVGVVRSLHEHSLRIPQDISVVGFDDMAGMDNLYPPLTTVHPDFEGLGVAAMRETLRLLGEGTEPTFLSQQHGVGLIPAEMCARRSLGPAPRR

Data set [4] has as its system T2, MalR1 (Bifidobacterium breve UCC2003), ORF:82221dfa.
T2 sequence: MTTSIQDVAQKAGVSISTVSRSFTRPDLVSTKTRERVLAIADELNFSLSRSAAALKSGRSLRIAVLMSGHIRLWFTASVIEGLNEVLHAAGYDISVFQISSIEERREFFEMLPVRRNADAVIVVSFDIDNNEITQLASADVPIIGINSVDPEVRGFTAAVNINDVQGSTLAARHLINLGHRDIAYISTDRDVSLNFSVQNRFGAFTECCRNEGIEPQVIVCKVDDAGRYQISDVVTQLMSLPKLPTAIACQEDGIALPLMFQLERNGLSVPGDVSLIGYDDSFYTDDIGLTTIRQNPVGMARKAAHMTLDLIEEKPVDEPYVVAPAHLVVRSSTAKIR

Take Bbr_1420 promoter: the results for the binding signal in data set [1] and in data set [2] were under 15 % bound and 0 % bound, respectively.

In the case of Bbr_1658 promoter, the binding signal in data set [1] and in data set [2] was 0 % bound in each case.

For Bbr_1659 promoter, the binding signal in data set [1] and in data set [2] was 0 % bound in each case.

Take Bbr_1841 promoter: the figures for the binding signal in data set [1] and in data set [2] were 0 % bound and under 15 % bound, respectively.

Regarding Bbr_1894 (PTS) promoter, in data set [1], the binding signal is under 15 % bound.

For the substance “CATACGCCTCTCGCTTTCGTCATTGGGCCGACGTCACTGCCGGCACAAAACCGCGACACATGTATGCGTCTTGGTCAACGCTGAATCGTCTCATCACTGAAATGATTTAACGTTTAATCACTTGCGTGATTCATAATATATCGTTTAATCACAGGGGTCAATCAGCGTGTCGAGAGCGTTAACAATCGCGTCCTAACGCCATTACCAGCACATCAGAAACACAATATGGCACAAAAAAAGACAAAATATTGGCGGCGAAGGACTATTGAGC (double strand) [rbsA1 promoter]”, the binding signal in data set [3] was 0 % bound; in data set [4], “binds”.

In the case of “CGAATGCCATATCCGTCTCCTCCTTGCGGCTTACTGCAGCGTTAGAAATGCACAATTCAAATGTACCCTTCTTATAACCGACGCCCGCAAGGTCGTGTCATGCGTCAAACTCTTTTACTGCAGACATTTTTGAGGCTTCTGCTGTTTTCGTGGGCTAGCTGACTGGTTCCGGTAGTCGGATGTCGAGTCCGCCGCATCTGAGCATGATC (double strand) [Bbr_1420 promoter]”, the binding signal in data set [3] is 0 % bound; in data set [4] it was under 15 % bound.

In the case of “CGACAGCTTCCTTGCCATGCTGGCCCTCCTTTATTTTCCAACCCTCGGTTTTCCGCATTGTGCAATCTGCATTGTTTGCCTTGCGGAATCTTAGGAAATTATTTTCCTAAAATGTTTTCTTGAGATAAGATTATAGGACGCCAACGTCAGTGTCAACACGGCGGGTCGAGGGTCGCACAACCCGGACCGAACGGCCCACAATGGCGACGTAGCAAGGAACAGAACGCTACGCCCTTGTACACTGATACAGAGGAAAACAGGCAGGAGGGGAGACATGAACATCAGGGACATCGCACGC (double strand) [Bbr_1841 promoter]”, the binding signal is under 15 % bound in data set [3] and 0 % bound in data set [4].

For the substance “CTTCGCCACGTCATACACCGTTGCCCTACGCATGATTCCTACTTTAATCGATTCCGGAGGTCAGCACACGTTCGACCTGAATCTAAAAAAAGTTTTAGTGGCTTTCCTGTCAATCTCGCATGCATACTTCAGGTTACGGGCGCAGCACCCAATAATGGGTACCGCGCCTTAATGACCGCTACACGAGCAGTCTCAGCAACTGGTAAAGCTGCCATAGGCTGCGCACGTTG (double strand) [Bbr_1659 promoter]”, the binding signal in data set [3] and in data set [4] was 0 % bound throughout.

On to “GATGAGTGCGCGTGAGAAGAAGAAGGCTGCCGTAGAAGCGAAATAATCGGTGCATGGCCGCTCTGCAGATATATGGAGGGCGGTCTGCGAACCGCCGGGAATGGGTTGCCAATCCCGGCGGTTTGTGTATCCGTGGCGCAGTACAGTCGTAAAGGAAGGCAAGGAGGACAACCATGGCGGAAGGTGTACCGAAGTATATTGCGGTTAGGGACAATCTTCGCCAGCGTG (double strand) [gntR promoter]”, for which the binding signal in data set [3] and in data set [4] was 0 % bound in each case.

Take “GCGTTCTATCCTTGCACTGAGCCACGAAAGACGGCATTGTGCAAACGATGGCATACTGTGGGATGCGGAATGACAAGACATGTGATACTCTCTGACTGAGAACGTATGCAACAACTGTCTGCCAACGCTGTTACAGAGAGTTCATGCACACGTTTATGCGACGATACCAATCGCGCGGCATAATAAGCACGGGCACTTATCCCGGAAGGAAAGTCAGAATG (double strand) [glgP1 promoter]”: the binding signal entry is “binds” in data set [3] and 0 % bound in data set [4].

For “GCTCGCTTTTGCCATGGCAACCTCGCTCATCAACAGTGGATAACAATCCCGCTCAAAAGACAACGTTATCATACCTAAGCGAGCAACATGCACGCCACGCTGTCTATTTAGAAGTGCAACGCCCCTGTTCGTCGGCTAATTCTTGCAGTTCGTCGGTGAATGCCCCGGGCCCCCGGATTCAACTTGTAAGTGCAACGGCTGGTTTCGG (double strand) [malR2 promoter]”, the results for the binding signal entry in data set [3] and in data set [4] were “binds” and 0 % bound, respectively.

On to “GGTCAAGCTCATCGTGCGGGGCAGCTGTGGGTGCTGATTATTTCTTGAAGAAGGCTAAATAAGGCTTTTGAGACCTCCTGCAGGGGAGTCACTGTTGATGCTGTTTCGTCGTGTCGAATCGGTTCGCGAGTTGACAAACAAAAAACTATGCGCTTAAATATTAATCACAATCTACGCGGTTAGATTGTTGAGAAGTAACAGTTCAAGGAGGAACGAGGAATGAAGCGAAGCATGTTCAAGATGGCGACTGCCATCATCGCCAGTGCGGCTATGCTGACCAG (double strand) [Bbr_1658 promoter]”, for which the binding signal in data set [3] and in data set [4] was 0 % bound throughout.

Consider “GGTTGTCGTAATCCTCGGTGGAAGGACCGATGGTGTCTACGATCTTGGCTTTACGCATGAATGCCTGCCTATTCTTGTTCTTTTTTGGTTCGAGGCGCGATTGCCTCACTTGCCGCAGCCCAGTCTACTAGCGCAGACCGGCTCATGACAAGTTTATTCCCCGGTGTGTTGTGAGCGCTCACACTGTTGCGCCGATTGGGTTTTGAGGGGTTGATTTCCCTATGATTTCAGGCCTTCTCAGCG (double strand) [pyk promoter]”, for which the binding signal entry in data set [3] and in data set [4] was “binds” throughout.

As to agl3 promoter, the binding signal in data set [1] and in data set [2] was 0 % bound each time.

In turn, cldE promoter gave a binding signal in data set [2] of 0 % bound.

In the case of cldR promoter, the binding signal in data set [1] and in data set [2] was 0 % bound throughout.

As to glgP1 promoter, the binding signal in data set [1] turned out to be 0 % bound.

Take glgP2 promoter: the binding signal in data set [1] and in data set [2] was 0 % bound in each case.

gntR promoter: the binding signal in data set [1] and in data set [2] was 0 % bound in each case.

On to malE promoter, for which, in data set [1], the binding signal was determined as 0 % bound.

Consider malG2 (F2) promoter, for which the binding signal in data set [1] is 0 % bound.

malQ promoter: the binding signal in data set [1] is 0 % bound; in data set [2] it was under 15 % bound.

In data set [1], malR2 promoter registered a binding signal of 0 % bound.

For the substance malR3/apuB intergenic region, the binding signal in data set [1] and in data set [2] was under 15 % bound in each case.

As for malR5/malE2 intergenic region, the binding signal in data set [1] and in data set [2] was under 15 % bound throughout.

In data set [1], nrdH promoter had a binding signal of 0 % bound.

Substance rbsA1 promoter displayed a binding signal in data set [2] of 0 % bound.
